Assay results from PMC11806106.

Key:
[1] = target: MOR-nLuc (rat µ opioid receptor, wild type, with C-terminal nLuc) (rat) (UniProt P33535)
[2] = target: rat µ opioid receptor (MOR-wt) (rat) (UniProt P33535)
[3] = target: MOR BRET sensor (G267-MOR sensor with mTurq2 replaced by nLuc2) (rat) (UniProt P33535)

Substance DAMGO (peptide) has an EC50 of agonist-induced arrestin3 interaction with MOR-nLuc (BRET, with GRK2) [1] of 282 nM, an EC50 of Go activation (BRET-based activity sensor Go1-case) [2] of 2.92 nM and an EC50 of the agonist-induced change of the BRET ratio of the MOR BRET conformation sensor [3] of 445 nM.
